In this experiment the target is CXC chemokine receptor (CXCR)3, CXCR3A (UniProt P49682).
Chain of UniProt P49682 (P49682 whole entry): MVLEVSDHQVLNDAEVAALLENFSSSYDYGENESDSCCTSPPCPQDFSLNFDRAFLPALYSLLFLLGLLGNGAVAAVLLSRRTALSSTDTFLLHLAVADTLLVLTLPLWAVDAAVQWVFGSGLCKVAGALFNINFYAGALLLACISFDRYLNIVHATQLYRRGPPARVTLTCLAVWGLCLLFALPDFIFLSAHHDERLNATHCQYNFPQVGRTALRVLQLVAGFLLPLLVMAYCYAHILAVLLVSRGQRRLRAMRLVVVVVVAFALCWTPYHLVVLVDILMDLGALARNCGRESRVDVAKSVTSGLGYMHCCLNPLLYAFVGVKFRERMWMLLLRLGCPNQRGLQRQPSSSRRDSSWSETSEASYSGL

Take “CXC chemokine ligand (CXCL)10 (from UniProt P02778 22-98)”: the increase of [Ca2+]i in Fura-2-loaded CHO/CXCR3A cells stimulated with 3 ng/mL CXCL10 (no GAG) was 107 nM.

B1: CXC chemokine ligand (CXCL)9 (ligand)
chain: TPVVRKGRCSCISTNQGTIHLQSLKDLKQFAPSPSCEKIEIIATLKNGVQTCLNPDSADVKELIKKWEKQVSQKKKQKNGKKHQKKKVLKVRKSQRSRQKKTT
The molecule B1 returned an increase of [Ca2+]i in Fura-2-loaded CHO/CXCR3A cells stimulated with 1 µg/mL CXCL9 (no GAG) of 598 nM.

B2: CXC chemokine ligand (CXCL)11 (ligand)
chain: FPMFKRGRCLCIGPGVKAVKVADIEKASIMYPSNNCDKIEVIITLKENKGQRCLNPKSKQARLIIKKVERKNF
In turn, B2 returned an increase of [Ca2+]i in Fura-2-loaded CHO/CXCR3A cells stimulated with 3 ng/mL CXCL11 (no GAG) of 304 nM.

(Values after article PMC5536003.)
